# Data as given in patent publication US20160145309A1.
# Biological target: human APJ receptor (human) (UniProt P35414)
# Experiment: cell-based or functional assay
# Chain of human APJ receptor (human) (P35414 whole entry): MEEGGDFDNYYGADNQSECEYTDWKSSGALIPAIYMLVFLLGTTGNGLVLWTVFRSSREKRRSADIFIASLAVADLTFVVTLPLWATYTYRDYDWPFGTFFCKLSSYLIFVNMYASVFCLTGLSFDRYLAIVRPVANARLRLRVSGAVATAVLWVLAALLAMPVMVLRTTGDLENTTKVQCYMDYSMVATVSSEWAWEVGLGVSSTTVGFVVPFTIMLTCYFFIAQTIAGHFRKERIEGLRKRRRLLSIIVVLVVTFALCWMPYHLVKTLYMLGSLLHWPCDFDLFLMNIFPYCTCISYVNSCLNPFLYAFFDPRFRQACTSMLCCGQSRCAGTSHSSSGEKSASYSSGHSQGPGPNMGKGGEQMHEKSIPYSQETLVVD
row,Substance,hAPJ Ca2+ Flux EC50
1,Example 8: pE-R-P-R-L-S-(D-hC)*-K-G-P-Nle-C*-F-OH (peptide),0.613 µM
2,Example 9: pE-R-P-R-L-S-(D-hC)*-K-G-P-Nle-hC*-F-OH (peptide),1.03 µM
3,Example 12: pE-R-P-R-L-S-C*-K-G-P-Nle-hC*-F-OH (peptide),0.0817 µM
4,Example 14: pE-R-P-R-L-S-H-K-C*-P-Nle-C*-F-OH (peptide),0.00081 µM
5,Example 15: pE-R-P-R-L-S-Aib-K-C*-P-Nle-C*-NH(Phenethyl) (peptide),0.004 µM
6,Example 18: Isonipecotoyl-R-P-R-L-a-H-K-C*-P-Nle-C*-f-OH (peptide),0.0023 µM
7,Example 19: pE-R-P-R-L-a-Aib-K-C*-P-Nle-C*-f-OH (peptide),0.0723 µM
8,Example 20: pE-R-P-R-L-S-Aib-K-C*-P-Nle-C*-f-OH (peptide),0.0061 µM
9,Example 21: pE-R-P-R-L-s-H-K-C*-P-Nle-C*-f-OH (peptide),0.0097 µM

# The next lines start with the values.
row,hAPJ Ca2+ Flux EC50,Substance
1,0.00074 µM,Example 1: pE-R-P-R-C*-S-H-K-G-P-Nle-C*-F-OH (peptide)
2,0.154 µM,Example 2: pE-R-P-R-hC*-S-H-K-G-P-(D-Nle)-C*-y-OH (peptide)
3,0.129 µM,Example 3: pE-R-P-R-L-S-C*-K-G-P-Nle-C*-F-OH (peptide)
4,0.407 µM,Example 4: pE-R-P-R-L-S-C*-K-G-P-Nle-(D-hC)*-F-OH (peptide)
5,0.981 µM,Example 5: pE-R-P-R-L-S-c*-K-G-P-Nle-(D-hC)*-F-OH (peptide)
6,0.0928 µM,Example 6: pE-R-P-R-L-S-hC*-K-G-P-Nle-(D-hC)*-F-OH (peptide)
7,0.781 µM,Example 7: pE-R-P-R-L-S-(D-hC)*-K-G-P-Nle-(D-hC)*-F-OH (peptide)
8,0.976 µM,Example 10: pE-R-P-R-L-S-(D-hC)*-K-G-P-Nle-C*-OH (peptide)
9,0.113 µM,Example 11: pE-R-P-R-L-S-C*-K-G-P-Nle-c*-F-OH (peptide)
10,0.76 µM,Example 13: pE-R-P-R-L-S-hC*-K-G-P-Nle-hC*-F-OH (peptide)
11,0.0332 µM,Example 16: pE-R-P-R-L-S-a-K-C*-P-Nle-C*-f-OH (peptide)
12,0.0019 µM,Example 17: pE-R-P-R-L-a-H-K-C*-P-Nle-C*-f-OH (peptide)
